In article PMC3891853:

Legend:
[1] = target: HA-tagged glucocorticoid receptor (GR) (UniProt P04150); assay: co-immunoprecipitation with anti-Flag agarose, Western blot densitometry; details: HEK293 cells, transient transfection, mean + SEM, N = 3, parent: 100, read off a plot
Hsc70/Hsp70 = assay: co-immunoprecipitation with anti-Flag agarose, densitometry of co-precipitated Hsc/Hsp70; details: HEK293 cells, transient transfection; mean + SEM, N = 3; parent: 100; read off a plot
[2] = target: Hsc70, in vitro translated and labeled (UniProt P11142)
Sequence of UniProt P11142 (P11142 whole entry): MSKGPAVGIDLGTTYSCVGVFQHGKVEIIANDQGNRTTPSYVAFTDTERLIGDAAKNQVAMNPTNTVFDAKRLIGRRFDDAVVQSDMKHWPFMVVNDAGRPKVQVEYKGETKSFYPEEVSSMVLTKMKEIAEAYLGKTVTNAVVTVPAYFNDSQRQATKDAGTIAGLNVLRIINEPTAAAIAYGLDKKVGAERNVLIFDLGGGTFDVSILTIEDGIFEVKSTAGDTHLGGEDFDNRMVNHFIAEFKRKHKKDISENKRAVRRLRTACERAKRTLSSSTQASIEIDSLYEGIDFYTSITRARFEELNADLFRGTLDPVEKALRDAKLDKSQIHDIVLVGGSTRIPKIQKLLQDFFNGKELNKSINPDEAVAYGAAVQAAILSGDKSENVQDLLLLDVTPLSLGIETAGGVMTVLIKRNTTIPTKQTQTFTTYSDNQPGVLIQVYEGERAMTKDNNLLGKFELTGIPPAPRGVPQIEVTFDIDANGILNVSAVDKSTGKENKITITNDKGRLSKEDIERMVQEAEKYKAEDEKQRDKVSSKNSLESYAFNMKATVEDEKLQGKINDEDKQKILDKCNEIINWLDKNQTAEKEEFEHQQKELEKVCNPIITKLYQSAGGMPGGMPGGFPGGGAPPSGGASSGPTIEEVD

Sequence of UniProt P04150 (P04150 whole entry): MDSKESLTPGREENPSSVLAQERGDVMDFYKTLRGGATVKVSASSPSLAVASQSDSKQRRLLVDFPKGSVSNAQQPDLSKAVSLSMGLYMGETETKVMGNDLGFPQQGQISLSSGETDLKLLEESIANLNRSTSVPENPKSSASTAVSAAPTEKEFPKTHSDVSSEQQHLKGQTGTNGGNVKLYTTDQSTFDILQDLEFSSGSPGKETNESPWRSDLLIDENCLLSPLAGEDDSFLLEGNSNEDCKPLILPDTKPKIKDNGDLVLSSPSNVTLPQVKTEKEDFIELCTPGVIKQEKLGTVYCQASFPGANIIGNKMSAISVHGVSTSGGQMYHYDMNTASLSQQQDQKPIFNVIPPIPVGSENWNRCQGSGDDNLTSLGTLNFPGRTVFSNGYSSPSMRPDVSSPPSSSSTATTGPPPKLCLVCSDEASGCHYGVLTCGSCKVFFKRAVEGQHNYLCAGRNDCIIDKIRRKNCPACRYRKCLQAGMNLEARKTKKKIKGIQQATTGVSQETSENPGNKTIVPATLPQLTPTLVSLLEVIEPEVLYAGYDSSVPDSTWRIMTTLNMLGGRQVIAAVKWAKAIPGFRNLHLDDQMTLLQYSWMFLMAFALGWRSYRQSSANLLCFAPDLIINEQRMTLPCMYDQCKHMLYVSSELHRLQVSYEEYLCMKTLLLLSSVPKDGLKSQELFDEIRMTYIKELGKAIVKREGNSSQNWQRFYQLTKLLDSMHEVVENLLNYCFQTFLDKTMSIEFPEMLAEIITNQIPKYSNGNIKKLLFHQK

Flag-tagged wild-type Bcl2-associated athanogene 1, medium isoform (BAG-1M) R237A
percent of parent (% (BAG-1M = 100%)) [1]: 18 | percent of parent (% (BAG-1M = 100%)) (Hsc70/Hsp70): 6

B1: purified HspBP1_mut (A137R, K249A; His-tagged) (natural protein)
chain: MSDEGSRGSRLPLALPPASQGCSSGGGGGGSSAGGSGNSRPPRNLQGLLQMAITAGSEEPDPPPEPMSEERRQWLQEAMSAAFRGQREEVEQMKSCLRVLSQPMPPTAGEAEQAADQQEREGALELLADLCENMDNRADFCQLSGMHLLVGRYLEAGAAGLRWRAAQLIGTCSQNVAAIQEQVLGLGALRKLLRLLDRDACDTVRVKALFAISCLVREQEAGLLQFLRLDGFSVLMRAMQQQVQKLKVASAFLLQNLLVGHPEHKGTLCSMGMVQQLVALVRTEHSPFHEHVLGALCSLVTDFPQGVRECREPELGLEELLRHRCQLLQQHEEYQEELEFCEKLLQTCFSSPADDSMDR
ATPase activity of purified Hsc70 with DJA2 and HspBP1 mut (each 4 µM, 30°C) [2]: 7.26 min⁻¹
